Results reported in patent US20240309360A1, “TRANS-ACTIVATORS AND METHODS AND USE THEREOF” (THE GOVERNING COUNCIL OF THE UNIVERSITY OF TORONTO, priority 2021, published 2024).

B1: C3orf62: full-length C3orf62 protein (protein)
chain: MHYIKTWSLLGEMSEKLRRCRKELTAAIDRAFEGVSYSQECTGQQRLELSAAPLSFSLPVHRLLCRRHPLAACSSAAPFAAVPCAPENENPAFATNHAPVNAKPHALCPERKPLTSKENVLMHSSILAPERESWRTAGEGENWRKENLRKDMERDLKADSNMPLNNSSQEVTKDLLDMIDHTSIRTIEELAGKIEFENELNHMCGHCQDSPFKEEAWALLMDKSPQKATDADPGSLKQAFDDHNIVETVLDLEEDYNVMTSFKYQIE
modifications: left off: things letters cannot carry; small tags and cut ends
notes: full-length C3orf62 protein
B2: CBX6: CBX-C domain of CBX6 (protein, listed as Homo sapiens)
chain: GASSEPEAGDWRPEMSPCSNVVVTDVTSNLLTVTIKEFCNPEDFEKVAAGVAGAAGGGGSIGASK
B3: SRF: Serum Response Factor (protein)
chain: MLPTQAGAAAALGRGSALGGSLNRTPTGRPGGGGGTRGANGGRVPGNGAGLGPGRLEREAAAAAATTPAPTAGALYSGSEGDSESGEEEELGAERRGLKRSLSEMEIGMVVGGPEASAAATGGYGPVSGAVSGAKPGKKTRGRVKIKMEFIDNKLRRYTTFSKRKTGIMKKAYELSTLTGTQVLLLVASETGHVYTFATRKLQPMITSETGKALIQTCLNSPDSPPRSDPTTDQRMSATGFEETDLTYQVSESDSSGETKDTLKPAFTVTNLPGTTSTIQTAPSTSTTMQVSSGPSFPITNYLAPVSASVSPSAVSSANGTVLKSTGSGPVSSGGLMQLPTSFTLMPGGAVAQQVPVQAIQVHQAPQQASPSRDSSTDLTQTSSSGTVTLPATIMTSSVPTTVGGHMMYPSPHAVMYAPTSGLGDGSLTVLNAFSQAPSTMQVSHSQVQEPGGVPQVFLTASSGTVQIPVSAVQLHQMAVIGQQAGSSSNLTELQVVNLDTAHSTKSE
modifications: left off: things letters cannot carry; small tags and cut ends
notes: Serum Response Factor
B4: SPDYC: Spy1/RINGO family protein (protein, listed as Homo sapiens)
chain: MLWAIPELGSPCPISISYEMSDSQDPTTSPVVTTQVELGGCSRQGGGNGFLRFRQHQEVQAFLSLLEDSFVQEFLSKDPCFQISDKYLLAMVLVYFQRAHLKLSEYTHSSLFLALYLANDMEEDLEGPKCEIFPWALGKDWCLRVGKFLHQRDKLWARMGFRAVVSRQCCEEVMAKEPFHWAWTRDRRPHHGGVQRVCPQVPVRLPRGPGLSPPHCSPCGLPQHCSSHLLKPVSSKCPSLTSECHRPPSQNYLSRVKNAWGGDFLIVLPPQMQLEPGTYSLRIFPKPPARPGH
B5: C3orf62-Cterm: C-terminal fragment of C3orf62 fused to SRF in the fusion (protein)
chain: AAVPCAPENENPAFATNHAPVNAKPHALCPERKPLTSKENVLMHSSILAPERESWRTAGEGENWRKENLRKDMERDLKADSNMPLNNSSQEVTKDLLDMIDHTSIRTIEELAGKIEFENELNHMCGHCQDSPFKEEAWALLMDKSPQKATDADPGSLKQAFDDHNIVETVLDLEEDYNVMTSFKYQIE
modifications: left off: things letters cannot carry; small tags and cut ends
notes: C-terminal fragment of C3orf62 fused to SRF in the fusion
B6: RYBP: YAF2_RYBP domain of RYBP (protein, listed as Homo sapiens)
chain: IQSANATTKTSETNHTSRPRLKNVDRSTAQQLAVTVGNVTVIITDFKEKTRSSSTSSSTVTSSAGSEQQNQS

Tests used:
[1] = system: serum response element reporter in NIH3T3 cells; assay: SRF reporter assay (SRE-Firefly luciferase); type: cell-based, mouse; conditions: NIH3T3 fibroblasts, 3×FLAG tagged constructs, no cofactors
Method: SRF functions together with either ternary complex factors (TCFs; e.g. ELK1) or myocardin-related transcription factors (MRTFs; e.g. MAL) to regulate target gene expression (Buchwalter et al., 2004; Olson and Nordheim, 2010). […] To test this further, the activity of different constructs was assayed in NIH3T3 fibroblasts using a luciferase-based serum response element reporter (Vartiainen et al., 2007).
SRF reporter assay. 30,000 NIH-3T3 cells on 24-well plates were transfected with 8 ng SRF reporter (p3DA.luc), 20 ng reference reporter (pcDNA3.1-Nanoluc-3×FLAG-V5) and 50 ng 3×FLAG tagged constructs (Addgene #87063). Transfection was carried out using Lipofectamine 3000 reagent (Thermo Fisher Scientific, L3000001) according to the manufacturer's protocols. Luciferase constructs were a kind gift from Dr. Maria Vartiainen (University of Helsinki). Cells were maintained in low-serum media (0.5% BCS) for 18 hours and stimulated for 7 hours (15% BCS), after which luciferase activity was measured. Firefly luciferase was normalized to Renilla luciferase activity using data from four independent transfections.

[2] = system: NIH3T3 cells gene expression; assay: RNA sequencing of NIH-3T3 cells with doxycycline-inducible EGFP-tagged constructs; type: cell-based, mouse; conditions: GFP-tagged
From the text: The SRF/TCF pathway, which is regulated by MAP kinase signaling, regulates the expression of immediate-early genes (Gualdrini et al., 2016), whereas the actin-Rho signaling dependent SRF/MRTF pathway targets genes involved in cell motility and adhesion (Miralles et al., 2003). To test if SRF-C3orf62 can regulate target genes of both pathways, stable doxycycline-inducible NIH3T3 cell lines stably expressing SRF, C3orf62, SRF-C3orf62 and Nanoluc fused to GFP were generated. Transgene expression was induced with doxycycline for 24 hours and changes in gene expression were analyzed by RNA-seq. […] These signatures are consistent with the oncogenic nature of the SRF-C3orf62 fusion. […] In contrast, many well-characterized immediate-early target genes of SRF/TCF such as FOS, EGR1, or EGR2 were not affected by ectopic SRF-C3orf62 expression (FIG. 5H).
RNA sequencing and analysis. NIH-3T3 cells with stable integrations of SRF, C3orf62, SRF-C3orf62 or Nanoluc tagged at the C-terminus with EGFP were induced with 1 μg/mL doxycycline for 24 hours. […] Reads were aligned to the Gencode mouse primary assembly (GRCm39) with STAR aligner v2.7.8a. […] Changes in gene expression compared to cells expressing Nanoluc-EGFP were quantified using the edgeR package (Robinson et al., 2010).

[3] = system: EGFP reporter (7×TetO array, basal CMV promoter) in HEK293T reporter cell line; assay: Arrayed recruitment assay, PYL1 fusions individually recruited to reporter via ABI1-dCas9 with ABA; type: cell-based, human; conditions: PYL1 fusion, ABA 48 hours, flow cytometry
From the text: Treatment of cells with abscisic acid (ABA) induces an interaction between ABI1 and PYL1, thereby recruiting the potential transcriptional activator to a specific genomic locus defined by the guide RNA (gRNA). As a reporter, a HEK293T cell line that contains a stably integrated construct with a 7×TetO array and a basal CMV promoter driving the expression of EGFP was used (Gao et al., 2016). A monoclonal cell line that expresses ABI1-dCas9 and a single gRNA targeting TetO was generated by lentiviral infection.
Arrayed recruitment assays. Reporter cells stably co-expressing ABI-dCas9 and TetO gRNA were seeded either on 48-well or 96-well plates (Sarstedt) to reach 50-70% confluency on the day of transfection. 150 ng of each construct to be tested was transfected with polyethylenimine (PEI) at a ratio of 0.6 μl reagent. The day after transfection, recruitment was induced by treatment with ABA (100 μM). […] Inhibitors were dissolved in DMSO to a stock concentration of 10 mM. The final concentrations used were 100 nM for flavopiridol, 300 nM for JQ1, 1 μM for A-485, 2.5 μM for CX-4945 and 3 μM for AZ191. All inhibitors were a kind gift from the Structural Genomics Consortium (SGC). 48 hours after induction, cells were dissociated and resuspended in flow buffer using a liquid handing robot (TECAN) and analyzed by LSR Fortessa (BD). Cells were gated on high EBFP2 and RFP as a measure of gRNA and transfection control, respectively. Flow cytometry data was analyzed using FlowJo (v10).

| Molecule | activation of serum response element luciferase reporter [1] | effects on the transcriptome compared to Nanoluc [2] | activation of the EGFP reporter when individually tested [3] |
| --- | --- | --- | --- |
| B1 | did not activate the reporter | very limited or no effects on the transcriptome |  |
| B2 |  |  | activated the reporter weakly |
| B3 | did not activate the reporter | very limited or no effects on the transcriptome |  |
| B4 |  |  | inactive in the recruitment assay |
| B5 |  |  | strongly activated the GFP reporter |
| B6 |  |  | robustly activated the reporter |
